Reference: article PMC5444381
Like-named read-outs stand apart in the source and are kept apart here.

How the values were obtained:
[1] = biological target: BaL.01 Env trimeric spikes on pseudotyped viruses (HIV-1 BaL.01)
[2] = biological target: BaL.01 Env trimeric spikes on pseudotyped viruses (HIV-1 BaL.01); remark: listed apart in the source
[3] = biological target: BaL.01 Env trimeric spikes on pseudotyped viruses (HIV-1 BaL.01); remark: listed apart in the source

**Q.** With DAVEI-L4(ΔCRAC) as the substance, how does the EC50 of virolysis (p24 release from HIV-1 BaL.01 pseudovirus, sandwich ELISA) [1] read?
**A.** 28.3 nM

**Q.** What about the IC50 of inhibition of HIV-1 BaL.01 pseudovirus infection of HOS.T4.R5 cells [1] of the same substance?
**A.** 1.1 nM

**Q.** How did the EC50 of virolysis (p24 release from HIV-1 BaL.01 pseudovirus, sandwich ELISA) [2] turn out when DAVEI-L4(ΔCRAC)-W3,7,9,15A was run?
**A.** 122 nM

**Q.** What about the IC50 of inhibition of HIV-1 BaL.01 pseudovirus infection of HOS.T4.R5 cells [3] of the same substance?
**A.** 0.78 nM

**Q.** How did the EC50 of virolysis (p24 release from HIV-1 BaL.01 pseudovirus, sandwich ELISA) [2] turn out when DAVEI-L4(ΔCRAC)-W7,9,15A was run?
**A.** 43.1 nM

**Q.** What about the IC50 of inhibition of HIV-1 BaL.01 pseudovirus infection of HOS.T4.R5 cells [3] of the same substance?
**A.** 0.36 nM

**Q.** Which EC50 of virolysis (p24 release from HIV-1 BaL.01 pseudovirus, sandwich ELISA) [2] does the source give for DAVEI-L4(ΔCRAC)W9,15A here?
**A.** 49.7 nM

**Q.** And the IC50 of inhibition of HIV-1 BaL.01 pseudovirus infection of HOS.T4.R5 cells [3]?
**A.** 0.45 nM

**Q.** What does the source list for DAVEI-L4(ΔCRAC)W15A?
**A.** EC50 of virolysis (p24 release from HIV-1 BaL.01 pseudovirus, sandwich ELISA) [2]: 46.8 nM; IC50 of inhibition of HIV-1 BaL.01 pseudovirus infection of HOS.T4.R5 cells [3]: 0.4 nM

**Q.** DAVEI-L4(ΔMPER) was tested. Which IC50 of inhibition of HIV-1 BaL.01 pseudovirus infection of HOS.T4.R5 cells [1] did it give?
**A.** 1.4 nM
